Source: patent US20250332300A1 (priority 2024, published 2025)
Positions of bridges follow the written chain, without caps; N, C: chain ends. Non-standard residues stand in square brackets, D forms with d. *: point of attachment. X4 = 4‑(carboxymethyl)piperazine‑1‑carbonyl, O=C(O)CN1CCN(C(=O)*)CC1; DOTA = O=C(O)CN1CCN(CC(=O)O)CCN(CC(=O)*)CCN(CC(=O)O)CC1; Trp(5-OH) = N[C@@H](Cc1c[nH]c2ccc(O)cc12)C(=O)O; NMePhe(4-F) = CN[C@@H](Cc1ccc(F)cc1)C(=O)O; NMehPhe = CN[C@@H](CCc1ccccc1)C(=O)O; Aad = N[C@@H](CCCC(=O)O)C(=O)O; aThr = C[C@H](O)[C@H](N)C(=O)O; NMeK = CN[C@@H](CCCCN)C(=O)O; NMeDap = CN[C@@H](CN)C(=O)O; NMeC = CN[C@@H](CS)C(=O)O; NMeS = CN[C@@H](CO)C(=O)O; CproG = not defined here; Dap = NC[C@H](N)C(=O)O

Experiments:
human HER2 (23-652) [1] = biological target: T1, human HER2 (23-652) (Homo sapiens, UniProt P04626); test: Surface plasmon resonance (SPR) for assessment of peptide affinity, human HER2; format: binding; conditions: SPR, human HER2 extracellular domain, 25° C., 1:1 binding model; read-out: huHER2-SPR-ONC KD
Protocol: Each protein was immobilized either onto a SA sensorchip (Cytiva, BR-1005-31) or CM5 sensorchip (Cytiva, BR-1005-30) to a density of 800-2000 RU. […] For the assay setup the same conditions (flow rate, running buffer, peptide dilution) as described above were used. In a first step the Anti Fc IgG Ab (from Human Antibody Capture Kit, Ref. 29234600, Cytiva) was diluted into acetate pH 5.0 at 25 ug/mL and immobilized at a flow rate of 10 uL/min over 360 s to reach a density around 6000 RU. […] The peptides were tested with an association time of 280 s followed by a dissociation time of 3000 s at a flow rate of 30 uL/min. The regeneration was done using 3 M magnesium chloride regeneration solution as obtained with a contact time of 30 s at a flow rate of 10 uL/min. Curve fitting was performed using the BiacoreTM 8K evaluation software.

mouse HER2 (23-653) [2] = biological target: T2, mouse HER2 (23-653) (Mus musculus, UniProt P70424); test: Surface plasmon resonance (SPR) for assessment of peptide affinity, mouse HER2; format: binding; conditions: SPR, mouse HER2 extracellular domain, 25° C., 1:1 binding model; read-out: moHER2-SPR-ONC KD
T2 sequence (P70424 23-653): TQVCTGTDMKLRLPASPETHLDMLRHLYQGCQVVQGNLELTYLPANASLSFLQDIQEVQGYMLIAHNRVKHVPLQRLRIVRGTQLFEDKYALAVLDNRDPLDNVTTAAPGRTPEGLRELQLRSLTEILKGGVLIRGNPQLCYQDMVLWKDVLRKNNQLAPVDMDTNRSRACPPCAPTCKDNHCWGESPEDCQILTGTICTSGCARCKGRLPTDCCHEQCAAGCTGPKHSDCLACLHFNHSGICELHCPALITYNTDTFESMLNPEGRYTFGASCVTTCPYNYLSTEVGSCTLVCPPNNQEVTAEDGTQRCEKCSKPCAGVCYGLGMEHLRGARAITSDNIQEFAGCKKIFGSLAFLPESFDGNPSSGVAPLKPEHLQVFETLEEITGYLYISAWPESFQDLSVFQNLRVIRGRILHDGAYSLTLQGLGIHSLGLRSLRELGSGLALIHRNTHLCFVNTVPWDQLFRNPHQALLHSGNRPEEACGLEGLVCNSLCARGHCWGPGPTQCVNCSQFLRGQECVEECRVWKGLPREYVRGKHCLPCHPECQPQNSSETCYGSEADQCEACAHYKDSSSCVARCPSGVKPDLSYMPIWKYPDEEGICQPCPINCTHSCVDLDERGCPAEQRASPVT
Excerpt: Each protein was immobilized either onto a SA sensorchip (Cytiva, BR-1005-31) or CM5 sensorchip (Cytiva, BR-1005-30) to a density of 800-2000 RU.

human HER2 (23-652) [3] = biological target: T1, human HER2 (23-652); test: TR-FRET competition assay for peptide potency, human HER2; format: binding; set-up: towards human HER2 (23-652) and mouse HER2 (23-653); made in house; host or cells: mammalian cells; conditions: read-out: huHER2 TR-FRET IC50
mouse HER2 (23-653) [4] = biological target: T2, mouse HER2 (23-653); test: TR-FRET competition assay for peptide potency, mouse HER2; format: binding; set-up: mouse HER2 (23-653) using a Cy5 labeled peptide as a probe; made in house; host or cells: mammalian cells; conditions: TR-FRET competition with Cy5 labeled peptide probe, 0.1 nM mouse HER2, 24 h incubation; read-out: moHER2 TR-FRET IC50
[5] = system: subcutaneous JimT1 tumors; set-up: species or system Nu (NCr)-Foxnlnu-homozygous mice; conditions: mouse, in vivo, iv
Protocol: Biodistribution studies were performed at Minerva Imaging. All animal experimentation was carried out under a license approved by the National Animal Experiments Inspectorate under the Ministry of Environment and Food of Denmark, and further approved by the Novartis Animal Welfare Office. Biodistribution studies were performed in Nu (NCr)-Foxnlnu-homozygous mice bearing subcutaneous JimT1 tumors. Mice were subcutaneously implanted with 2×10^6 JimT1 cells into right flank. The biodistribution studies were typically performed when tumors were approximately 200 mm^3 in volume. Compounds according to Examples H1 and H2 were prepared as described in the radiochemistry part (Section 9). Animals were single dose administered with an activity concentration of 4 MBq/nmol per animal. The biodistribution of the compounds was assessed using conventional ex vivo biodistribution at different time points (1, 4, 24 and 72 hrs) after intravenous injection of Lu-177 labelled compounds. Mice were euthanized and organs were collected, weighed, and placed inside counting vials. Organ uptake was assessed by gamma counting using an automated gamma counter for 60 seconds immediately after tissue collection. Tissue counts and injected doses for individual animals were decay-corrected to the time of injection. […] Results expressed as a percentage of injected dose per gram of the tissue (% ID/g).

[6] = biological target: T3, human HER2 (23-652), biotinylated, His tag, Avi tag (human, UniProt P04626 23-652, biotin (Avi tag)); test: SPR, HER2 on chip, 25 C
T3 construct: range 23-652; TR-FRET used the in-house 23-652 protein; also called huHER2; human epidermal growth factor receptor 2; not shown: His tag and Avi tag, said to be at the N-terminus for the TR-FRET protein

[7] = biological target: T4, mouse HER2 (23-653), biotinylated, His tag, Avi tag (mouse, UniProt P70424 23-653, biotin (Avi tag)); test: SPR, HER2 on chip, 25 C
T4 construct: range 23-653; in-house protein expressed in mammalian cells; also called moHER2; not shown: His tag and Avi tag, said to be at the N-terminus for the TR-FRET protein
T4 sequence (P70424 23-653 limits assumed): as the sequence (P70424 23-653) above

[8] = biological target: T3, human HER2 (23-652), biotinylated, His …; test: TR-FRET competition vs Cy5 peptide probe
[9] = biological target: T4, mouse HER2 (23-653), biotinylated, His …; test: TR-FRET competition vs Cy5 peptide probe
[10] = biological target: mouse HER2 (23-653), biotinylated, His tag, Avi tag (mouse) (UniProt P70424); test: SPR, HER2 on chip, 25 C
Chain of mouse HER2 (23-653), biotinylated, His tag, Avi tag (mouse) (P70424 23-653 limits assumed): as the sequence (P70424 23-653) above

[11] = biological target: human HER2 (23-652), biotinylated, His tag, Avi tag (human) (UniProt P04626); test: TR-FRET competition vs Cy5 peptide probe; TR-FRET competition, IC50

## CC(=O)NCCCC[C@H]1C(=O)N[C@@H](Cc2c[nH]c3ccc(O)cc23)C(=O)N[C@@H](Cc2c[nH]c3ccccc23)C(=O)N[C@@H](C2CC2)C(=O)N(C)[C@H](C(=O)N(C)[C@@H](Cc2ccc(F)cc2)C(=O)N[C@@H](CCCCNC(=O)c2ccc([N+](C)(C)C)nc2)C(N)=O)CNC(=O)CCC[C@H](NC(C)=O)C(=O)N[C@@H](Cc2ccc(O)cc2)C(=O)N[C@@H](CO)C(=O)N(C)[C@@H](CCc2ccccc2)C(=O)N1C [Example F2]
Human HER2 (23-652) [1]
  Kd: < 0.1 nM
Mouse HER2 (23-653) [2]
  Kd: < 0.1 nM
Human HER2 (23-652) [3]
  IC50: < 0.1 nM
Mouse HER2 (23-653) [4]
  IC50: 0.2 nM

## COCCOCCOCCOCCOCCOCCOCCOCCOCCOCCOCCOCCC(=O)N[C@H]1CCCC(=O)NC[C@@H](C(=O)N(C)[C@@H](Cc2ccc(F)cc2)C(=O)N[C@@H](CCCCNC(=O)CN2CCN(CC(=O)O)CCN(CC(=O)O)CCN(CC(=O)O)CC2)C(N)=O)N(C)C(=O)[C@H](C2CC2)NC(=O)[C@H](Cc2c[nH]c3ccccc23)NC(=O)[C@H](Cc2c[nH]c3ccc(O)cc23)NC(=O)[C@H](CCCCNC(C)=O)N(C)C(=O)[C@H](CCc2ccccc2)N(C)C(=O)[C@H](CO)NC(=O)[C@H](Cc2ccc(O)cc2)NC1=O [Example H1, Example B2 labelled with ^177Lu, metal not drawn]
[5]
  tumor/normal tissue ratios: favorable tumor/normal tissue ratios

## Ac-EY[Dap](DOTA)[NMehPhe][NMeK](Ac)[Trp(5-OH)]W[aThr][NMeDap][NMePhe(4-F)]K(X4)-NH2 (lactam 1-9; also: DOTA complexed with 175Lu) [Example C26]
[6]
  Kd: 5.1 nM
[7]
  Kd: 11 nM
[8]
  IC50: 4.2 nM
[9]
  IC50: 17 nM

## H-CYS[NMehPhe][NMeS][Trp(5-OH)]W[cProG][NMeC][NMePhe(4-F)]-NH2 (disulfide 1-9) [Example A54]
[10]
  Kd: 5.3 µM

## Ac-[Aad]YS[NMehPhe][MeKAc][Trp(5-OH)]A[CproG][NMeDap][NMePhe(4-F)]K(DOTA)-NH2 (lactam 1-9; reading uncertain; also: DOTA complexed with 175Lu) [Example C32]
[11]
  IC50: 9.81 µM
